Measured values: patent US10363323B2, “Hydrophobic modified peptides for liver specific diagnosis” (RUPRECHT-KARLS-UNIVERSITAT HEIDELBERG, priority 2011, dated 2019)

How the values were obtained:
[1] = tested on: liver of a WAG/Rji rat; conditions: 400 nmol/kg i.v., five minutes post injection, WAG/Rji rat bearing CC531 colon carcinoma
Description: The rats were orthopically injected with 1×10^6 syngenic colon carcinoma cells (CC531 cells) 10 days prior to the measurements. At the day of measurement the rats received the peptide in a concentration of 400 nmol/kg body weight. During the experiments the rats were anaesthetised by isoflurane and kept at 37° C.

[2] = Stability in the serum; format: in vitro ADME; conditions: 37° C., non-inactivated human serum from healthy donors, over the indicated period
Description: The detection of degradation products was conducted by purification of the peptides by using HPLC affinity chromatography and subsequent radioactivity determination was performed on a gamma counter at the indicated time points. The correct mass of the radioactive peak fractions eluted from the column was confirmed by mass spectrometry (data not shown).

SMILES: CCCCCCCCCCCCCCCCCC(=O)N[C@@H](CCCCNC(=O)CN1CCN(CC(=O)O)CCN(CC(=O)O)CCN(CC(=O)O)CC1)C(=O)N[C@@H](CCCCNC(=O)CN1CCN(CC(=O)O)CCN(CC(=O)O)CCN(CC(=O)O)CC1)C(=O)N[C@@H](CCCCNC(=O)CN1CCN(CC(=O)O)CCN(CC(=O)O)CCN(CC(=O)O)CC1)C(=O)N[C@@H](CC(N)=O)C(=O)N[C@@H](CC(C)C)C(=O)N[C@@H](CO)C(=O)N[C@H](C(=O)N[C@@H](CO)C(=O)N[C@@H](CC(N)=O)C(=O)N1CCC[C@H]1C(=O)N[C@@H](CC(C)C)C(=O)NCC(=O)N[C@@H](Cc1ccccc1)C(=O)N[C@@H](Cc1ccccc1)C(=O)N1CCC[C@H]1C(=O)N[C@@H](CC(=O)O)C(=O)N[C@@H](Cc1c[nH]cn1)C(=O)N[C@@H](CCC(N)=O)C(=O)N[C@@H](CC(C)C)C(=O)N[C@@H](CC(=O)O)C(=O)N1CCC[C@H]1C(N)=O)[C@@H](C)O
- enrichment in the liver (PET image) [1]: Specific enrichment
- degradation in non-inactivated human serum (HPLC, gamma counter) [2]: Only radioactive decay but no cleavage was observed
